Tests used:
[1] = target: human CXCR4 (Chemokine receptor 4) (human) (UniProt P61073); assay: FACS on NIH3T3-CXCR4 transfected cells, 10 µg/ml antibody
[2] = target: human CXCR4 (Chemokine receptor 4) (human) (UniProt P61073); assay: FACS on Hela cervix cancer cells (endogenous CXCR4), 10 µg/ml antibody
[3] = target: human CXCR4 (Chemokine receptor 4) (human) (UniProt P61073); assay: FACS on MDA-MB-231 breast cancer cells (endogenous CXCR4), 10 µg/ml antibody
[4] = target: human CXCR4 (Chemokine receptor 4) (human) (UniProt P61073); assay: FACS on U937 promyelocytic cancer cells (endogenous CXCR4), 10 µg/ml antibody

Sequence of human CXCR4 (Chemokine receptor 4) (human) (P61073 whole entry): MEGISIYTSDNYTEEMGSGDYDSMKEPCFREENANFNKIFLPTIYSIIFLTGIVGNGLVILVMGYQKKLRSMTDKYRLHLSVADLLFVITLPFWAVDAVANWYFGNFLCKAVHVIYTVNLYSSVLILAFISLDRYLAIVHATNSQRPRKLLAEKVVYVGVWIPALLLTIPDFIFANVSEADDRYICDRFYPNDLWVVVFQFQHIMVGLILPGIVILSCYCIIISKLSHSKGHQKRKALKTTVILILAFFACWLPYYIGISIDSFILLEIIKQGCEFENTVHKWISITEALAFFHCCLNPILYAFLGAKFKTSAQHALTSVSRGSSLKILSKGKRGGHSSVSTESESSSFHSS

B1: murine monoclonal antibody 515H7 (hybridoma CNCM I-4019) (antibody, V domains shown)
VH: EVNLVESGGGLVQPGGSLRLSCATSGFTFTDNYMSWVRQPPGKALEWLGFIRNKANGYTTDYSASVRGRFTISRDNSQSILYLQMNALRAEDSATYYCARDVGSNYFDYWGQGTTLTVSS
VL: DIVMSQSPSSLAVSAGEKVTMSCKSSQSLFNSRTRKNYLAWYQQKPGQSPKLLIYWASARDSGVPARFTGSGSETYFTLTISRVQAEDLAVYYCMQSFNLRTFGGGTKLEIK
modifications: Biotinylated when used as tracer in the competition assay of Example 3 (site not stated); unlabelled in Example 2.
With B1 the MFI [1] was 2750 MFI, the MFI [2] was 1850 MFI and the MFI [3] was 239 MFI. For the same binder, the MFI [4] was 645 MFI.

Reference: patent US20140120555A1
